Measurements reported in PMC11160731.

B1: vapB27 promoter oligo (dsDNA)
DNA 1: CGGTGAGTCGACTTCCGCACCTGAGTGGGAAGCCATTGGTATCGTATTCCCATGA
DNA 2: TCATGGGAATACGATACCAATGGCTTCCCACTCAGGTGCGGAAGTCGACTCACCG
B2: vapB46 promoter oligo (dsDNA)
DNA 1: TCCTCCCAGCTCAGCGCCAACCAACCGAGGAACAACGCGCCGACTTTTTCAG
DNA 2: CTGAAAAAGTCGGCGCGTTGTTCCTCGGTTGGTTGGCGCTGAGCTGGGAGGA

How the values were obtained:
VapB27;VapC27 = VapB27;VapC27 (Mycobacterium tuberculosis …, UniProt O07779;P9WF83 1-78;1-137, |); assay: EMSA
VapB46;VapC46 = VapB46;VapC46 (Mycobacterium tuberculosis …, UniProt P9WF13;O50411 1-102;1-130, |); assay: EMSA
Chain of VapB46;VapC46 (P9WF13 whole entry, chain 1 of 2): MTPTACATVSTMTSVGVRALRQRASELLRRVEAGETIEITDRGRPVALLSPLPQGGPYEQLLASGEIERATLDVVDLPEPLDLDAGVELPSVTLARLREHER
Chain of VapB46;VapC46 (O50411 whole entry, chain 2 of 2): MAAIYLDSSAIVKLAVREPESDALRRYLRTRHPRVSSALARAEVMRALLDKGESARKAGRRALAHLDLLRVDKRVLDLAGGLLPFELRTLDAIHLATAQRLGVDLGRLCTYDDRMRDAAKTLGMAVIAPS

Chain of VapB27;VapC27 (O07779 whole entry, chain 1 of 2): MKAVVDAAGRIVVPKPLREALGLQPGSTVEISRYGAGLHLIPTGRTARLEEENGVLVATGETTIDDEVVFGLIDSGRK
Chain of VapB27;VapC27 (P9WF83 whole entry, chain 2 of 2): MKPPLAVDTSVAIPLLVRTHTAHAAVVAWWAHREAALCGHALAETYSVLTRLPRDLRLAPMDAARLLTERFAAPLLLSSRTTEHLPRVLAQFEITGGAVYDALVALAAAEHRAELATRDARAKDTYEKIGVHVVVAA

| Binder | binding result (VapB27;VapC27) | binding result (VapB46;VapC46) |
| --- | --- | --- |
| B1 | binds |  |
| B2 |  | binds |
